Assay results from PMC3229090 (Biochemistry, 2011).
Ends that are not written are not given here.

What was measured:
[1] = measured previously; ref [20]; cited from earlier work
[2] = test system: HeLa cells; experiment: HeLa proliferation assay; assay type: cell-based, Human; conditions: pH 6.0 and 7.4, treatment 3 hrs, data not shown
[3] = Reverse phase C18 HPLC elution as measure of hydrophobicity; assay type: physicochemical; conditions: reverse phase C18, 30 min gradient from 99:1 A/B to 70:30 A/B, water/acetonitrile + 0.05% TFA, flow rate 1 ml/min

Row | Substance | Log P of phalloidin-rhodamine [1] | Antiproliferative effect at either pH [2] | HPLC elution time of phallotoxins [3] [min]
1 | phalloidin-rhodamine | -0.05 | – | –
2 | phallacidin (AWLVDCP; also: cyclic peptide, R1 = H, R2 = COOH) | – | do not demonstrate an antiproliferative effect | 30.3
